Assay: soluble on expression in E. coli; label from the status in PepcDB or PDB records

Sequence	soluble on expression in E. coli
MSLPTTIQAISAEAINLPLTEPFAIASGAQAVAANVLVKVQLADGTLGLGEAAPFPAVSGETQTGTSAAIERLQSHLLGADVRGWRKLAAMLDHAEHEAAAARCGLEMAMLDALTRHYHMPLHVFFGGVSKQLETDMTITAGDEVHAAASAKAILARGIKSIKVKTAGVDVAYDLARLRAIHQAAPTAPLIVDGNCGYDVERALAFCAACKAESIPMVLFEQPLPREDWAGMAQVTAQSGFAVAADESARSAHDVLRIAREGTASVINIKLMKAGVAEGLKMIAIAQAAGLGLMIGGMVESILAMSFSANLAAGNGGFDFIDLDTPLFIAEHPFIGGFAQTGGTLQLADVAGHGVNLEGHHHHHH	soluble
HHHHHHPEIVDTCSLASPASVCRTKHLHLRCSVDFTRRTLTGTAALTVQSQEDNLRSLVLDTKDLTIEKVVINGQEVKYALGERQSYKGSPMEISLPIALSKNQEIVIEISFETSPKSSALQWLTPEQTSGKEHPYLFSQCQAIHCRAILPCQDTPSVKLTYTAEVSVPKELVALMSAIRDGETPDPEDPSRKIYKFIQKVPIPCYLIALVVGALESRQIGPRTLVWSEKEQVEKSAYEFSETESMLKIAEDLGGPYVWGQYDLLVLPPSFPYGGMENPCLTFVTPTLLAGDKSLSNVIAHEISHSWTGNLVTNKTWDHFWLNEGHTVYLERHICGRLFGEKFRHFNALGGWGELQNSVKTFGETHPFTKLVVDLTDIDPDVAYSSVPYEKGFALLFYLEQLLGGPEIFLGFLKAYVEKFSYKSITTDDWKDFLYSYFKDKVDVLNQVDWNAWLYSPGLPPIKPNYDMTLTNACIALSQRWITAKEDDLNSFNATDLKDLSSHQLNEFLAQTLQRAPLPLGHIKRMQEVYNFNAINNSEIRFRWLRLCIQSKWEDAIPLALKMATEQGRMKFTRPLFKDLAAFDKSHDQAVRTYQEHKASMHPVTAMLVGKDLKVD	soluble
MKLYNLKDHNEQVSFAQAVTQGLGKQQGLFFPHDLPEFSLTEIDEMLNQDFVSRSAKILSAFIGDEIPQQILEERVRAAFAFPAPVAQVESDVGCLELFHGPTLAFKDFGGRFMAQMLTHISGDKPVTILTATSGDTGAAVAHAFYGLENVRVVILYPRGKISPLQEKLFCTLGGNIETVAIDGDFDACQALVKQAFDDEELKTALGLNSANSINISRLLAQICYYFEAVAQLPQGARNQLVISVPSGNFGDLTAGLLAKSLGLPVKRFIAATNVNDTVPRFLHDGKWAPKATQATLSNAMDVSQPNNWPRVEELFRRKIWRLTELGYAAVDDTTTQQTMRELKAKGYISEPHAAVAYRALRDQLNPGEYGLFLGTAHPAKFKESVESILGETLALPEALAERADLPLLSHHLPADFAALRKLMMTRQ	not soluble
MREIVSIHIGQAGVQIGNACWELYCLEHGITPDGLMPDDTSYGVEDQSYNTFFSETPSGKHVPRAIFVDLEPTVIDEVRTGTYAKLFHPEQLISGKEDAANNYARGHYTIGKELIDVVMDRVRRLTERCQSLQGFLIFHSFGGGTGSGFTSLVMERLSIDYGKKAKLEFSIYPAPQISTSMVEPYNSLLTTHTTLEHSDCSFIMDNEAIYEITKVNLGVRSPTYTHLNRLLAQVVSSITASLRFDGALNVDLTEFQTNLVPYPRIHFPLVTYAPIISAEKAYHEQLSVSEITNVCFEPGSQMVKCDPRNGKYMACCLLYRGDVVPKEINSAISTIKTKRAIQFVDWCPTGFKVGINYQPPTVVPGGDMAKLQRAVCMLSNTTAIQEAWARLDHKFDLMYAKRAFVHWYVGEGMEEGEFSEAREDMAALEKDYEEVGVDSFDPNDEEY	not soluble
MQSVDVAIVGGGMVGLAVACGLQGSGLRVAVLDHVVPQPLANDASPQLRVSAINAASEKLLTRLGVWSNIVARRASCYHGMEVRDKDSFGRITFDDASMGYSHLGHIVENSVIHYALWQKAQQAADITLMAPAELQQVAWGENDAFLTLKDGAMLTARLVIAADGANSWLRNKADIPLTFWDYRHHALVATIRTEEPHGAVARQVFHGEGILAFLPLSDPHLCSIVWSLSPQDAERMQQSGDEAFNQALTIAFDNRLGLCRLESERQVFPLTGRYARQFAAHRLALVGDAAHTIHPLAGQGVNLGFMDAAELVDNLRRLQRQGKDIGQHLYLRRYERSRKHSAAMMLAGMQGFRDLFAGENPAKKLLRDIGLKLADTLPGVKPQLLRQAMGLNDLPQWLRLEHHHHHH	not soluble
MIEFRNVSKVYPNGTKGLNNINLKIQKGEFVVMVGLSGAGKSTLLRSVNRLHEITEGEIMIEGESITAAKGKGLRRMRRDIGMIFQSFNLVKRSTVLKNVLAGRVGYHSTLRTTLGLFPKEDLELAFQSLKRVNILEKAYARADELSGGQQQRVSIARALAQEAKIILADEPVASLDPLTTKQVLEDLKKINEDFGITTIVNLHSIDLARQYATRIIGLHAGEIVFDGLVEEATDEKFAEIYGDVVQKSELLEVAVK	not soluble
GNHHHHHMMLIKKIEELKNSEIKDIIDKRIQEFKSFKNKSNEEWFKELCFCILTANFTAEGGIRIQKEIGDGFLTLPREELEEKLKNLGHRFYRKRAEYIVLARRFKNIKDIVESFENEKVAREFLVRNIKGIGYKEASHFLRNVGYDDVAIIDRHILRELYENNYIDEIPKTLSRRKYLEIENILRDIGEEVNLKLSELDLYIWYLRTGKVLK	soluble
MWNETVEHENAGNGWAAGESSFMTDRKPDSKATTLGERLPVPVTISNLIEHFSAQDDKYVVGTFRFATVLTVGIVKDISQDGTTYTYDLCDPNNTEMEYRTLKYDNEGSTFDHSSIVEGTRVRAIGKLKGFDGNNTIMLFNITPVEDDKDFTIFELEAEAARLFFQKNVSEKLKSVDSDGFQGMLAPPKSRMSQTSHQSSQGSDTKERLYAQPQKVMTGANQGDVLRERITAVLMAVPEGSRDEGRHVSWIAEQIQETNISIVRKCVGEMVENGLVYTTVDEETVSAI	not soluble
MGSDKIHHHHHHLKKITNFRSLGGYQNAHGQMVKDGLIFRSGQLFELEDDQSHYLGQTLGIKHIVDMRSDDERTEFPDTVWEGADYAVLDILKDATANNASLGRMITEKGNVHENMLATYEQLALSDSAKTGYRQFIQGLLRPNEPTIFHCFAGKDRTGVGAALILKILDVSEQDIMADYLQTNAERTVANEEILAGLKERGFTDQQLKSIGEALKVDADYLRRYFQVIDQQFGPFQQYLREGLKLSAGEIAQFRDLYLQK	not soluble
MIARYQTPEMARLWSEESRYRMWARVEAYALEAWEALGEVPKGLSARLLAKLEEKPLDGAFARRVAELEAVTRHDLVAFTRALAEWTGDEEVGRYLHLGLTSSDIVDTAQNALLVEALGLVLEELKGVEEALKALALRHKHTPAIARTHGVHAEPTSFGLRFLFFLAAFQRDEERLKRARETIGVAMLSGSVGNYAHVPPEVEAHVASRLGLRPEPLSTQVVPRDRHAEVMAALAILGGNIERVAVELRHLQRTEVLEAQEPFHEGQTGSSSMPHKKNPVGLENLTGVARLLRGYLFPALEDIALWHERDISHSSVERVILPDATTLAHYALRRLKGILEGLEVFEENLARNLDLTRGLVYSQQVLNALIARGLSRNKAYALVQRNALRSWKEGKSFLELLEADPENPLKGKELRALFDPKPFLRHVDAIYARFGL	soluble
MTVSDHPQTVSQPDPESESRPSKTRLKQEMHALQALGERLVELEPARIAELDLPEKLAEALLEARKITSHGARRRHLQFIGKLMRAVDPLPVQEKLDAWQHTGMRHTAWLHQLERWRDRLISDETAVTEFVQTYPHTDVRQLRTLLRNIEKEKLAGKPPHNFRALFQLLRQIIPEIPG	not soluble
YENIQNIEDFYRFINAHALAVVHIMRDNCTVCHAVLPQIQDLLKDYPKAQLGVINQSNVEEIAGELSIFTVPVDLIFLKGKEMHRQARFIDMQSFEKQLYMMQNAID	soluble
MGKATWRQVWERARALAGAAALAVLAGCAAPGAQDPGQARNTAREAYIYAYPMLYHYRSMYEQAIDTASPAYLGGFGVFQHRAEPYTPQSVDVATPNVDTLYSRAWLDLRAEPWVLSLPAVPKSRYNAFQLVDMYTYNLAYLGTRATGFGSGHYLIAGPGWTGPVPKGITQVVRADTDFVAVLGRTALNGPADIKAVHALQARYGLRPLSAYTGTAAPAGAPPVDWLPWNEQRASSIGFIAYLNQLLAHTQPQPESEADMMARFARIGVAPGRDFEPARLDAATRRAMDAGIVDAQQAIEQGARHAAAPATPASLYGSREQLGGDYLKRAVAAAVGIYGNTADEAIYLTIGEDAQGRPLDGARAYELRFAPGRQPPVRFFWSISVYALPARGLAENPIDRYAIGSRTKGIKRGRDGSLTVYLQHDAPARAHAPNWLPTPAGPFVVVARFYGPQPALRDGAWVMPALVPARLEHHHHHH	not soluble
MGSKGVYQYHWQSHNVKHSGVDDMVLLSKITENSIVENLKKRYMDDYIFTYIGSVLISVNPFKQMPYFGEKEIEMYQGAAQYENPPHIYALADNMYRNMIIDRENQCVIISGESGAGKTVAAKYIMSYISRVSGGGTKVQHVKDIILQSNPLLEAFGNAKTVRNNNSSRFGKYFEIQFSPGGEPDGGKISNFLLEKSRVVMRNPGERSFHIFYQLIEGASAEQKHSLGITSMDYYYYLSLSGSYKVDDIDDRREFQETLHAMNVIGIFAEEQTLVLQIVAGILHLGNISFKEVGNYAAVESEEFLAFPAYLLGINQDRLKEKLTSRQMDSKWGGKSESIHVTLNVEQACYTRDALAKALHARVFDFLVDSINKAMEKDHEEYNIGVLDIYGFEIFQKNGFEQFCINFVNEKLQQIFIELTLKAEQEEYVQEGIRWTPIEYFNNKIVCDLIENKVNPPGIMSILDDVCATMHAVGEGADQTLLQKLQMQIGSHEHFNSWNQGFIIHHYAGKVSYDMDGFCERNRDVLFMDLIELMQSSELPFIKSLFPENLQADKKGRPTTAGSKIKKQANDLVSTLMKCTPHYIRCIKPNETKKPRDWEESRVKHQVEYLGLKENIRVRRAGYAYRRIFQKFLQRYAILTKATWPSWQGEEKQGVLHLLQSVNMDSDQFQLGRSKVFIKAPESLFLLEEMRERKYDGYARVIQKSWRKFVARKKYVQMREEASDLLLNKKERRRNSINRNFIGDYIGMEEHPELQQFVGKREKIDFADTVTKYDRRFKGVKRDLLLTPKCLYLIGREKVKQGPDKGLVKEVLKRKIEIERILSVSLSTMQDDIFILHEQEYDSLLESVFKTEFLSLLAKRYEEKTQKQLPLKFSNTLELKLKKENWGPWSAGGSRQVQFHQGFGDLAVLKPSNKVLQVSIGPGLPKNSRPTRRNTTQNTGYSSGTQNANYPVRAAPPPPGYHQNGVIRNQYVPYPHAPGSQRSNQKSLYTSMARPPLPRQQSTSSDRVSQTPESLDFLKVPDQGAAGVRRQTTSRPPPAGGRPKPQPKPKPQVPQCKALYAYDAQDTDELSFNANDIIDIIKEDPSGWWTGRLRGKQGLFPNNYVTKI	soluble
MGSDKIHHHHHHMISNEQYDYLRAHPTFERLTRDSFDQLAKHIRFRKIPKGQIFFYAEDPRDYLFVLYKGYARIEQYDETDSFTYLDYIRQGGAFPFGDMFQDKPYHYTAIAITDLEYFIVPMVLFETLSKINPSQMVYICQKLSKVLRFQELRLRNAMRSKASDRVVQALALLYWDMCQRDQFATLPFEIHIQEISRLAATTRETVSHVLKQLKQDGKIAYSHKQLTYLDIDYFLENLTETH	not soluble
MASNYNSGLKIGAWVGTQPSESAIKSFQELQGRKLDIVHQFINWSTDFSWVRPYADAVYNNGSILMITWEPWEYNTVDIKNGKADAYITRMAQDMKAYGKEIWLRPLHEANGDWYPWAIGYSSRVNTNETYIAAFRHIVDIFRANGATNVKWVFNVNCDNVGNGTSYLGHYPGDNYVDYTSIDGYNWGTTQSWGSQWQSFDQVFSRAYQALASINKPIIIAEFASAEIGGNKARWITEAYNSIRTSYNKVIAAVWFHENKETDWRINSSPEALAAYREAIGALEHHHHHH	soluble
HISLNPDLANEDEVNSCDYWRHCAVDGFLCSCCGGTTTTCPPGSTPSPISWIGTCHNPHDGKDYLISYHDCCGKTACGRCQCNTQTRERPGYEFFLHNDVNWCMANENSTFHCTTSVLVGLAKN	soluble
